Experimental data published in patent US20240238439A1 (HUMMINGBIRD BIOSCIENCE PTE, published 2024).

Legend:
Assay in all cases: SPR (Biacore T200), His-captured receptor on CM5 chip, ADC as analyte
[1] = target: T1, His-tagged recombinant human FcγRIA (human, UniProt P12314 16-288, limits assumed)
T1 construct: Captured on a CM5 chip by the Biacore HIS capture kit; also called human FCγRIA (CD64); not shown: His tag
Procedure: (§1) ADCs described in Example 2 were analysed for their ability to bind to human Fcγ receptors by surface plasmon resonance using Biacore.
(§2) Briefly, a Biacore HIS capture kit (Cytivia, Cat. #28995056) was employed to immobilize His-tagged recombinant human Fcγ receptor ligand (FcγRIA, FcγRIIA or FcγRIIIA) onto the surface of a CM5 sensor chip. […] Data capture and analysis were preformed using Biacore T200 according to manufacturer's recommendations for analyzing high-affinity antigen-antibody kinetics. Responses from all steps were reference cell-subtracted, and zero concentration-corrected to normalize for systematic disturbances. The resulting association and dissociation curves were fitted with 1:1 global fitting to obtain values for association rate (ka), dissociation rate (kd), and the equilibrium dissociation constant (KD).

[2] = target: T2, His-tagged recombinant human FcγRIIA (human, UniProt P12318 34-217, limits assumed)
T2 construct: Captured on a CM5 chip by the Biacore HIS capture kit; also called human FCγRIIA (CD32a); not shown: His tag
T2 sequence (looked up): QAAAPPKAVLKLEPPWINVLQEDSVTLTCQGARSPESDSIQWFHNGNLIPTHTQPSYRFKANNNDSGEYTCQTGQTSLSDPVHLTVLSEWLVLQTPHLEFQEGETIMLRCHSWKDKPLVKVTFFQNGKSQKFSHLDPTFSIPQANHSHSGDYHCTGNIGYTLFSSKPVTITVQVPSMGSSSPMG
Procedure: as §1, §2

[3] = target: T3, His-tagged recombinant human FcγRIIIA (human, UniProt P08637 17-208)
T3 construct: Captured on a CM5 chip by the Biacore HIS capture kit; also called human FCγRIIIA (CD16a); not shown: His tag
T3 sequence (P08637 17-208 limits assumed): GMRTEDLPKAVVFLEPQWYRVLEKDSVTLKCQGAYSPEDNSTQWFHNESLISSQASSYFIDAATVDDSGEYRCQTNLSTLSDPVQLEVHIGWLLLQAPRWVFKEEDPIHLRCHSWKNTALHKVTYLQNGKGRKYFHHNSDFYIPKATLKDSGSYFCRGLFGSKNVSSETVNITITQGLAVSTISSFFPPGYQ
Procedure: as §1, §2

Measured: binding result

T1 sequence (P12314 16-288 limits assumed): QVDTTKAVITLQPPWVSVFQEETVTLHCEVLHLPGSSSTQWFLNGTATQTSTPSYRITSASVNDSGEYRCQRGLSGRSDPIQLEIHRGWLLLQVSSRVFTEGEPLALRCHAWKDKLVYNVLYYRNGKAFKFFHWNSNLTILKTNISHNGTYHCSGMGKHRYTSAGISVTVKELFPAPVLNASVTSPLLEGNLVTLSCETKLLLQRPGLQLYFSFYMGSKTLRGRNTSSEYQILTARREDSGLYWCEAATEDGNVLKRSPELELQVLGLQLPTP

B1: 501c.S8D4 (antibody, human IgG1, kappa, L234A L235A)
heavy: not shown
light: DIQMTQSPSSVSASVGDRVTITCKASQIVGSNVAWYQQKPGKAPEPLIYSASYLYSGVPSRFSGSGSGTDFTLTISSLQPEDFATYYCQQYSSHPLTFGQGTKLEIKRTVAAPSVFIFPPSDEQLKSGTASVVCLLNNFYPREAKVQWKVDNALQSGNSQESVTEQDSKDSTYSLSSTLTLSKADYEKHKVYACEVTHQGLSSPVTKSFNRGEC
modifications: SYNtecan E (HydraSpace-PEG2-HydraSpace-Val-Ala-PABC linker, exatecan payload) conjugated at the 6-azido-GalNAc residue of the N-glycan of N297 (EU numbering); drug-to-antibody ratio 4
no binding: all assays above

B2: 501b.S8D4 (antibody, human IgG1, kappa, L234A L235A)
heavy: QVQLQESGPGLVKPSQTLSLTCTVSGYSITSGYSWHWIRQHPGKGLEWIGSIRYSGGTDYNPSLKSLVTISADTSKNQFSLKLSSVTAADTAVYYCARMTTAPWYPFDYWGQGTTVTVSSASTKGPSVFPLAPSSKSTSGGTAALGCLVKDYFPEPVTVSWNSGALTSGVHTFPAVLQSSGLYSLSSVVTVPSSSLGTQTYICNVNHKPSNTKVDKKVEPKSCDKTHTCPPCPAPEAAGGPSVFLFPPKPKDTLYITREPEVTCVVVDVSHEDPEVKFNWYVDGVEVHNAKTKPREEQYNSTYRVVSVLTVLHQDWLNGKEYKCKVSNKALPAPIEKTISKAKGQPREPQVYTLPPSRDELTKNQVSLTCLVKGFYPSDIAVEWESNGQPENNYKTTPPVLDSDGSFFLYSKLTVDKSRWQQGNVFSCSVMHEALHNHYTQKSLSLSPGK
light: B1 light
modifications: SYNtecan E (HydraSpace-PEG2-HydraSpace-Val-Ala-PABC linker, exatecan payload) conjugated at the 6-azido-GalNAc residue of the N-glycan of N297 (EU numbering); drug-to-antibody ratio 4
no binding: all assays above
